From patent publication US20260022175A1 (Chugai, published 2026) come the findings set out here.

In assay [1] the target is T1, human CTLA4 (human).
T1 construct: also called hCTLA4; hCTLA4-His-BAP
The assay can be described thus: SPR Biacore T200, 37C, antibody captured, ATP 10 uM. Background: In SPR one partner is held on a chip, and binding of the other changes the refractive index at the surface.

Assay [2] deals with T2, mouse CTLA4 extracellular region linked with a His-tag (mCTLA4-His) (mouse, UniProt P09793 36-161). In words: SPR Biacore T200, 37C, antibody captured, ATP 100 uM.
In assay [3] the target is T1, human CTLA4. The assay is described as above.
The target of assay [4] is T3, cynomolgus monkey CTLA4 (CyCTLA4-His-BAP) (cynomolgus monkey). The assay is described as above.
Assay [5] deals with T1, human CTLA4. The assay can be described thus: SPR Biacore T200, 37C, antibody captured, no ATP, steady state model.
Assay [6] concerns the target T2, mouse CTLA4 extracellular region linked …. In words: SPR Biacore T200, 37C, antibody captured, ATP 1 uM.
Assay [7] concerns the target T1, human CTLA4. In words: SPR Biacore T200, 37C, antibody captured, ATP 1 uM.
The target in assay [8] is T3, cynomolgus monkey CTLA4 …. In words: SPR Biacore T200, 37C, antibody captured, ATP 1 uM.
Assay [9] deals with T1, human CTLA4. The assay can be described thus: SPR Biacore T200, 37C, antibody captured, ATP 100 uM. The source holds these as a separate data set.
Assay [10] has as its target T2, mouse CTLA4 extracellular region linked …. In words: SPR Biacore T200, 37C, antibody captured, ATP 10 uM.
The target in assay [11] is T1, human CTLA4. The description is as above. The source holds these as a separate data set.
For assay [12], the target named is T3, cynomolgus monkey CTLA4 …. The description is as above.
For assay [13], the target named is T1, human CTLA4. In words: SPR Biacore T200, 37C, antibody captured, AMP 10 uM.
Assay [14] concerns the target T1, human CTLA4. The assay can be described thus: SPR Biacore T200, 37C, antibody captured, ATP 10 uM. The source holds these as a separate data set.
In assay [15] the target is T1, human CTLA4. The assay can be described thus: SPR Biacore T200, 37C, antibody captured, ADP 10 uM.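 Further: antibodies held on a Protein G CM3 chip, human CTLA4 as analyte in ACES pH 7.4 buffer, rates from a global 1:1 Langmuir fit, Kd from rates or steady state.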
Assay [16] addresses T1, human CTLA4. The assay can be described thus: SPR Biacore T200, 37C, antibody captured, ATP 10 uM. The source holds these as a separate data set.
Assay [17] deals with T1, human CTLA4. The assay can be described thus: SPR Biacore T200, 37C, antibody captured, no ATP, steady state model. This is another data set of the same source.
Assay [18] addresses T1, human CTLA4. The assay can be described thus: SPR Biacore T200, 37C, antibody captured, ATP 1 uM. The source holds these as a separate data set.
Assay [19] concerns the target T4, hCTLA4-His-BAP (human CTLA4 extracellular region with C-terminal His-tag and BAP-tag) (human, biotin on the BAP-tag).
T4 construct: also called hCTLA4-His-Biotin
The assay can be described thus: SPR 37C, ATP 10 µM.

The target of assay [20] is T4, hCTLA4-His-BAP (human CTLA4 …). The assay can be described thus: SPR 37C, no ATP, steady state model.
The target is the same in assay [21]. In words: SPR 37C, ATP 100 µM.
For assay [22] the target is unchanged. The assay can be described thus: SPR 37C, ATP 10 µM. This is another data set of the same source.
The target of assay [23] is T5, Abatacept (human IgG1 constant region fused to hCTLA4) (human, UniProt P16410 38-161, biotinylated by amine coupling).
T5 construct: bought drug; also called Abatacept-Biotin; biotin-labeled abatacept
T5 sequence (looked up): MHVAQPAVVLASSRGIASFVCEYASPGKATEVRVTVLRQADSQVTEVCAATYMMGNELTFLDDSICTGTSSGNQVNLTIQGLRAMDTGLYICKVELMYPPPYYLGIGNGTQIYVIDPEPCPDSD
In words: phage ELISA. In general terms: An ELISA detects its analyte on a solid surface through an enzyme-linked reagent.

The target in assay [24] is T6, mCTLA4-His (mouse CTLA4 extracellular region linked with a His-tag) (mouse, UniProt P09793 36-161). In words: SPR 37C, ATP 10 µM.
In assay [25] the target is T6, mCTLA4-His (mouse CTLA4 extracellular …). The assay can be described thus: SPR 37C, ATP 100 µM.

Where a chain is given by its changes, count along the chain named.

T3 sequence (chain, as listed by the source limits assumed): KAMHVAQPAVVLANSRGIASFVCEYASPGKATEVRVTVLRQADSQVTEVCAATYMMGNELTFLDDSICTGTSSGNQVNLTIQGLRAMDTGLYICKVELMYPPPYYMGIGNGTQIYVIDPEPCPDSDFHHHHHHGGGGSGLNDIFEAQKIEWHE
T4 sequence (chain, as listed by the source limits assumed): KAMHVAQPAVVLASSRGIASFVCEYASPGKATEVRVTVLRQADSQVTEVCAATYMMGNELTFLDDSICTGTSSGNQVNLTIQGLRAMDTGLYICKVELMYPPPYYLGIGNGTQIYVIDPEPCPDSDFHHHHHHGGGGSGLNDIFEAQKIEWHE

B1: 04H1389-G1m/04L1305-k0MT (antibody, human IgG1, kappa)
heavy: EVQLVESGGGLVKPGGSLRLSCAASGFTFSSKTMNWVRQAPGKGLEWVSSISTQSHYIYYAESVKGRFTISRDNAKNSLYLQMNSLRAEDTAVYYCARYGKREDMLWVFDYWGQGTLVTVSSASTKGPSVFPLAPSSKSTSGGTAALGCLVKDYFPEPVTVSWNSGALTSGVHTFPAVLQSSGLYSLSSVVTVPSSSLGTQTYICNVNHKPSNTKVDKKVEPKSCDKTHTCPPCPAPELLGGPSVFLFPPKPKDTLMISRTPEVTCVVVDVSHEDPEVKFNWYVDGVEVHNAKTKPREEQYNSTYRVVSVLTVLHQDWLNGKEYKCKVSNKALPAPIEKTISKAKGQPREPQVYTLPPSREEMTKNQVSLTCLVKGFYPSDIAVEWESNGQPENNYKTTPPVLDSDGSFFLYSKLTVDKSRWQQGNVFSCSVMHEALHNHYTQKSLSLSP
light: DIVMTQSPLSLPVTPGEPASISCDGPSTGVGDYNYVHWYQQKPGQAPRLLIYFTSKKPSGVPDRFSGSGSGTDFTLKISRVEAEDVGVYYCQTYAAPLGPMFGQGTKLEIKRTVAAPSVFIFPPSDEQLKSGTASVVCLLNNFYPREAKVQWKVDNALQSGNSQESVTEQDSKDSTYSLSSTLTLSKADYEKHKVYACEVTHQGLSSPVTKSFNRGEC
Broadly, the Kd is the constant that tells how readily two partners part at equilibrium. One may read the koff as the rate constant with which the complex falls apart. As usually defined, the kon is the rate constant with which the complex forms. With B1, the Kd was 17 nM in [1]; 12 nM in assay [2]; 4.6 nM in [3]; 12 nM in assay [4]; 3200 nM in assay [5]; 210 nM in assay [6]. In addition, the equilibrium dissociation constant (Kd) was 72 nM in assay [7]; 140 nM in assay [8]; 5.4 nM in assay [9]; 32 nM in [10]; 14 nM in assay [11]; 26 nM in [12]. For the same molecule, the Kd amounted to 79 nM in assay [13]; 19 nM in [14]; 25 nM in assay [15]; 15 nM in assay [16]; 2400 nM in assay [17]; 82 nM in assay [18]. The off-rate (koff) in [1] stood at 0.0019 s⁻¹; in assay [13], 0.012 s⁻¹; in assay [15], 0.0038 s⁻¹. Also, the values for the association rate constant (kon) in assay [1], in assay [13] and in [15] were 110000 M⁻¹ s⁻¹, 150000 M⁻¹ s⁻¹ and 160000 M⁻¹ s⁻¹, respectively.

B2: 04H1389-G1m/04L1086-lam1 (antibody, human IgG1, lambda, V domains shown)
VH: EVQLVESGGGLVKPGGSLRLSCAASGFTFSSKTMNWVRQAPGKGLEWVSSISTQSHYIYYAESVKGRFTISRDNAKNSLYLQMNSLRAEDTAVYYCARYGKREDMLWVFDYWGQGTLVTVSS
VL: QSALTQPPSASGSPGQTVTISCDGPSTGVGDYNYVHWYQQHPGKAPKLMIYFTSKKPSGVPDRFSGSKSGNTASLTVSGLQAEDEADYFCQTYAAPLGPMFGGGTKLTVLG
Consider B2, for which the “fold enhancement of binding ability against parent 04H1207-G1m/04L1086-lam1” value in [19] was around 10 fold.

B3: 04H1389-G1m/04L1086-lam1 (antibody, human IgG1, lambda, V domains shown)
VH: B2 VH
VL: B2 VL
In the case of B3, the Kd in assay [1] is 32 nM; in assay [5] it was 5100 nM; in assay [9], 21 nM; in assay [13], 130 nM; in assay [14] it was 43 nM; in assay [15], 44 nM. Also, the equilibrium dissociation constant (Kd) in [16] is 37 nM; in assay [17], 5700 nM; in assay [18], 180 nM. The koff in assay [1] was 0.0032 s⁻¹; in assay [13], 0.018 s⁻¹; in assay [15] it was 0.0061 s⁻¹. For the same molecule, the on-rate constant (kon) amounted to 100000 M⁻¹ s⁻¹ in [1], 140000 M⁻¹ s⁻¹ in [13] and 140000 M⁻¹ s⁻¹ in assay [15].

B4: 04H1382-G1m/04L1086-lam1 (antibody, human IgG1, lambda, V domains shown)
VH: B2 VH with E62R
VL: B2 VL
On to B4, for which the “fold enhancement of binding ability against parent 04H1208-G1m/04L1086-lam1” value in [19] was around 10 fold.

B5: 04H1077-G1m/04L1066-lam1 (antibody, human IgG1, lambda, V domains shown)
VH: B2 VH with G10D, S17G, K32R, Q54R, H56G
VL: B2 VL with G28D, Y34W, Q91S
Take B5: the Kd came out at 6900 nM in assay [20], 48 nM in assay [21] and 280 nM in assay [22].

B6: 04H1077-G1m/04L1305-k0MT (antibody, human IgG1, kappa, V domains shown)
VH: B2 VH with G10D, S17G, K32R, Q54R, H56G
VL: DIVMTQSPLSLPVTPGEPASISCDGPSTGVGDYNYVHWYQQKPGQAPRLLIYFTSKKPSGVPDRFSGSGSGTDFTLKISRVEAEDVGVYYCQTYAAPLGPMFGQGTKLEIKR
With B6, the Kd turned out to be 6500 nM in assay [20], 56 nM in assay [21] and 360 nM in assay [22].

B7: ABAM001 (antibody, human IgG1, V domains shown)
VH: EVQLVESGGDLVKPGGGLRLSCAASGFTFSSYTMHWVRQAPGKGLEWVSSISSRSRYKYYADSVKGRFTISRDNAKNSLYLQMNSLRAEDTAVYYCARFGIKNKRNWVLDYWGQGTLVTVSS
VL: QSALTQPPSASGSPGQTVTISCTGTSTDVGAYNYVSWYQQHPGKAPKLMIYQVSKRPSGVPDRFSGSKSGNTASLTVSGLQAEDEADYFCSLYTTRPQLAFGGGTKLTVL
notes: also called ABADh11-4_020
Consider B7, for which, in [23], the binding result is “binds”.

B8: ABAM003 (antibody, human IgG1, V domains shown)
VH: B7 VH with S31G, K58A, Y59S, K104H, R105L, L109F
VL: QSALTQPPSASGSPGQTVTISCTGTSSDVGDYNYVSWYQQHPGKAPKLMIYGVSKRPSGVPDRFSGSKSGNTASLTVSGLQAEDEADYFCSTVSTSHSPVFGGGTKLTVL
notes: also called ABADh12-4_014
B8: the binding result in assay [23] is reported as “binds”.

B9: hUH02-G1d/hUL01-k0 (antibody, human IgG1, kappa, V domains shown)
VH: QVQLQESGPGLVKPSETLSLTCTVSGYSISSGYGWNWIRQPPGKGLEWIGFIYYEGSTYYNPSIKSRISITRDTSKNQFFLQVNSVTTEDTATYYCARQTGYFDYWGQGTLVTVSS
VL: DIVMTQSPDSLAVSLGERATINCKSSQSLFNSNAKTNYLNWYQQKPGQPPKLLIYYASTRHTGVPDRFSGSGSGTDFTLTISSLQAEDVAVYYCQQWYDYPYTFGAGTKVEIKR
notes: also called anti-mouse CTLA4 antibody
Turning to B9, the Kd in assay [24] and in assay [25] was 110 nM in each case.
